The values that follow are results of earlier work, collected in article PMC2225448.

By Kd is commonly meant a measure of binding affinity in units of concentration.

In one data set the target is ErbB2 (Homo sapiens) (UniProt P04626).
In data set [1] the target is EGFR pY1069 (Homo sapiens) (UniProt P00533).
Data set [2] deals with EGFR pY1069 pY1069 (Homo sapiens) (UniProt P00533).

Grb7, sequence (Q14451 whole entry): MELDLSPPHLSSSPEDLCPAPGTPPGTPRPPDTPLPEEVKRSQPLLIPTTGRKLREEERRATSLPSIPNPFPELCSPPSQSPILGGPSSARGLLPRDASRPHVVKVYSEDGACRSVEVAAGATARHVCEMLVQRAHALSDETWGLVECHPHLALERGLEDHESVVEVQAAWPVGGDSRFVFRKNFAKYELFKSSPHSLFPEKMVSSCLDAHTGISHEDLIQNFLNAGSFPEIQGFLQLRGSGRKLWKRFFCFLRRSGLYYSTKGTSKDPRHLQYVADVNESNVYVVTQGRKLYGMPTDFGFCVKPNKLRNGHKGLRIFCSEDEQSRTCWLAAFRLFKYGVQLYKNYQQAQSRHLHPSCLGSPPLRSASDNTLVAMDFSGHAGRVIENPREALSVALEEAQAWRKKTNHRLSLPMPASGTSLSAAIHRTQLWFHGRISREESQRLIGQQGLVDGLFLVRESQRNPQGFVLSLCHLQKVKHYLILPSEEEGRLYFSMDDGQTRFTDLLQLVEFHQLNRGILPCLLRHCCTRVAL

Take Grb7 (from UniProt Q14451): in the data set with ErbB2 (Homo sapiens), the Kd was 2.3 µM.
In the case of Cbl (from UniProt P22681), the Kd in data set [1] and in data set [2] was 0.4 µM each time.
